Here are results for 139 substances from the supplement of paper PMC12042874.

± gives the uncertainty stated by the source.

A short description of this data set: amyloid nucleation score (Sup35N fusion, yeast selection) (log enrichment); library NNK2; higher = more nucleation; inactive = no reads after selection. A digest of the protocol:
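Peptides of 20 random codons fused to Sup35N were expressed in psi-negative yeast, induced 24 hours with 100 μM copper sulfate, then grown 7 days at 30°C on medium lacking adenine and uracil. Input and output plasmid inserts were Illumina-sequenced. Nucleation score is the DiMSum log enrichment of output over input reads, centred on the mode score of non-aggregating sequences, excluding sequences with under 100 input reads. Random libraries had three technical output replicates.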
FMLRTAQSHISSTVTSVKQA displayed an amyloid nucleation score of 0.064 ± 0.4.
In turn, FMMELCLALYLLSYQ yielded an amyloid nucleation score of 0.061 ± 0.8.
Next, FMNLTLGIYKDFITFMMYVS: 1.83 ± 0.12; FMSIFDWSCVWFYLCKGTWD: -1.75 ± 0.54.
In the case of FMSRTWLAYFTCKMLHGLLR, the amyloid nucleation score is 0.863 ± 0.41.
The substance FMSVFTSAFLISHIMLV registered an amyloid nucleation score of 0.21 ± 1.
Next, FMYLPL: -0.596 ± 0.3; FNFVMLYPTPAGSAKFVGCI: 2.85 ± 0.19; FNGLSSFSFMLIGTGFDISC: -0.934 ± 0.64.
Next, FNRLA: -0.603 ± 1.1; FNSLILQIIVVRV: 7.843 ± 0.04.
FNTRMSIKSGNMTWSNYYWF returned an amyloid nucleation score of 5.771 ± 0.053.
Next, FNVAGRRRISGTNLY: -0.159 ± 1.1.
FNVDKRPRSDVCLAGCISD came in with an amyloid nucleation score of -0.825 ± 0.56.
Next, FNVSVGMMNFRMERLGI: -0.819 ± 0.42; FPAQPAVRSRSACWYVLQVR: 0.111 ± 0.49.
Next, FPASHRVVQV: 5.41 ± 0.065.
Next, FPFLDGVVLSKEFYNLR: -1 ± 1; FPGLDGNQMFRLC: 0.42 ± 0.66.
Regarding FPGRSSCDHTAMWLL, the amyloid nucleation score stood at 0.732 ± 0.4.
Next, FPIAVVKRALDLAVNGLESD: 0.021 ± 0.44; FPMFSYTSMHYGH: 1.83 ± 0.17; FPNLFYFADYVLICNLMIKL: 4.585 ± 0.029.
Next, FPQFNRIWSSNFFAHIEGLN: -1.85 ± 0.44.
Next, FPTFFCLAIIWKYMFLLIKF: -0.238 ± 1.1; FPTFQSLRDPRHMLFRGNFM: -0.317 ± 1.1; FPWQSSDYFWNHARRS: -0.043 ± 0.6.
As for FQNGQDGYGESLV, the amyloid nucleation score is -0.898 ± 1.1.
Next, FQVSCVHQVPRAAGVADGAV: 0.375 ± 0.21.
Next, FRAPFTDAGPWSSSGNFLRL: -0.151 ± 0.37; FRDIVWF: -0.469 ± 0.55.
Next, FRFSNR: 0.389 ± 0.56; FRFWLIDAHLLWDFSYLDTR: 3.28 ± 0.13.
As to FRGIPCLCHVIM, the amyloid nucleation score came out at 5.81 ± 0.081.
Next, FRGSAFS: 7.173 ± 0.051; FRHYSYRRWQSLHKIVGICH: “inactive”.
Next, FRIIYKWCLMPLMPGCGGM: “inactive”; FRKSFHIYIVELYMDDHPLM: “inactive”.
Next, FRLAVFSEFQCFR: 1.9 ± 0.12; FRLNMAYDEPVCLMGSVHNV: -1.38 ± 0.54; FRLTIDNFDVNGLLSEMAYG: -0.293 ± 0.38.
The substance FRMSVKR showed an amyloid nucleation score of 0.309 ± 0.33.
Next, FRMVSKPMLYNIMRFTSMLV: 0.057 ± 1.1.
With FRNAGIKRCPFVTRDQSTHF, the amyloid nucleation score result is “inactive”.
Regarding FRSNYVKAFRYLYVGLVVNL, the amyloid nucleation score is -0.505 ± 1.1.
The substance FRYIKPTCSFICLVRFVGDF gave an amyloid nucleation score of -0.833 ± 1.
FRYRKSLDCNAMVPERQTGT yielded an amyloid nucleation score of 1.11 ± 0.53.
Next, FSFEMDISLWALWGYMRSDL: “inactive”.
Next, FSFYLTQSKSALIIDVAQRI: -0.231 ± 0.49.
Next, FSGFVCWQADIFDDANIRLV: -0.707 ± 0.78; FSHFAPWLSSDLCMWSCYLG: 5.269 ± 0.041; FSIDVSSYRMWLPVSDLYFI: -0.545 ± 0.76.
FSLFCPWRKWLLDEVFM showed an amyloid nucleation score of 0.5 ± 0.27.
Next, FSLGQKLLFCFCEVCWLNVA: 2.97 ± 0.1.
Next, FSMRSKQGRTFTRLQDGSGL: 4 ± 0.046; FSNIVNCSDRCATCVYFEFV: 4.808 ± 0.047.
For FSNSHIVMVENLTDIVSVTT, the amyloid nucleation score result is “inactive”.
Next, FSRVESEIHSHWPW: 5.639 ± 0.041; FSSNTKSNKRIDV: 0.147 ± 0.8; FSSRNFNLCRKTYWWCDSYQ: -0.066 ± 1.
Next, FSSWAFLMSRLCYHDSESHL: 0.417 ± 0.16; FSTHDIGSRKWARQYLYVVH: 0.334 ± 0.31.
FSVRLSELSMTNLSTQYEIS displayed an amyloid nucleation score of 1.82 ± 0.15.
FSWDPGMIWGKI returned an amyloid nucleation score of 7.203 ± 0.053.
Next, FTFFIRYLERDWPRLL: -0.549 ± 0.74.
The substance FTKSKWLWSRAAFLRIDRW gave an amyloid nucleation score of 0.799 ± 0.74.
Next, FTVVIINISYTLSVLRERQM: 1.5 ± 0.14; FTWVYMVGFKWWVSVCLLDS: -0.551 ± 0.28; FTYLIEARG: 1.02 ± 0.41.
Next, FTYRPISRNM: 4.99 ± 0.076.
Next, FVDRTCLVRSMLRVLPITGG: 0.065 ± 0.61; FVFLVYYFSEFIH: “inactive”; FVFYSEEGLGHDLSNFTGGI: “inactive”.
As for FVLMMDYEIIFLN, the amyloid nucleation score came out at 4.52 ± 0.071.
Turning to FVLSMVLSIILLSLSHHLFG, the amyloid nucleation score worked out at 2.33 ± 0.2.
Next, FVNQPKVRYLVSCYFMANLP: 0.016 ± 0.54.
Next, FVRASGHTTCYSCQLSTPGP: 1.34 ± 0.15; FVRGDSGFTLNAAR: -0.288 ± 0.3; FVRSIDNSAYLLWVSLYPCM: -0.364 ± 0.79.
Next, FVRSWSTCCDA: -0.176 ± 0.31; FVRVCLSVIRYFTVTPGFKD: “inactive”.
For FVSGDHGTVWYIT, the amyloid nucleation score is -0.036 ± 0.48.
The substance FVSGRKNETYSKVIHVSDVD yielded an amyloid nucleation score of -0.198 ± 0.62.
Take FVSSII: the amyloid nucleation score is -1.29 ± 0.39.
With FVWSKSR, the amyloid nucleation score worked out at 2.88 ± 0.13.
Next, FVYVIFQSNMGPYWRNRRLL: 0.636 ± 0.81; FVYWFKYT: -1.2 ± 1.1.
Regarding FWLNMYSVETVYGVVFAWEK, the amyloid nucleation score was -0.694 ± 0.31.
Next, FWVFTNIESMGLAYCDNQDL: 3.09 ± 0.064.
Next, FWVLDSSADYRAS: 5.62 ± 0.075; FWYCTHTTSYDGTLNSEWVT: 0.307 ± 0.26.
Next, FWYSCR: -0.889 ± 0.41.
FYCRVFTLSGFVRIWGDC registered an amyloid nucleation score of -0.562 ± 1.1.
Next, FYGVNVRIRCKH: 0.486 ± 0.66; FYHCFDVLSSQMYYLKLLST: “inactive”; FYKDKETCLECWMIYENCRK: -0.29 ± 0.32.
Next, FYKNAP: -1.06 ± 1.1; FYLRGHACDSSWSNLVVGLW: 4.8 ± 0.083; FYNRFRGFIFV: “inactive”.
FYPAEFYGKGLVDRTLFFIC showed an amyloid nucleation score of 0.12 ± 0.18.
Next, FYRGT: -0.974 ± 0.55; FYSFGGNGDYSPKSGHWS: “inactive”.
Regarding FYSLILMMEDGSEYVKVEFR, the amyloid nucleation score was -1.38 ± 0.75.
In turn, FYSSPILM came in with an amyloid nucleation score of -0.927 ± 0.41.
Next, FYVRGGCI: -2.22 ± 0.76.
The substance FYYLWWDSFRIVISMR had an amyloid nucleation score of -1.86 ± 0.62.
Next, GACGVSEVMHRVVFRGRLKR: 0.4 ± 0.39; GADAGDCPRNHSCAMHAEGF: 1.13 ± 0.46.
Next, GAEFTFGLFTYEFGIGQG: 0.285 ± 0.57; GAGLRCLFGNSGYGERCVTM: 0.82 ± 0.44; GAGPGSLAKRHYWDSSSQYE: -0.024 ± 0.31.
As for GAGWFNDFVHLPWHLEVSNY, the amyloid nucleation score is -1.17 ± 1.1.
Next, GAIDLMDALRCPAKTDTR: 0.811 ± 0.67; GASFMSRNIRTWMTMWCDLK: 0.012 ± 0.23.
GATGGLSVCELVRCSELNRG: the amyloid nucleation score came to 0.985 ± 0.37.
Next, GAVGARLAINGSSRWMCSWY: 2.39 ± 0.1; GAWTAMSGVLMVMLWLWSVC: 1.83 ± 0.23.
Next, GCGSPQSTFPRERCQVLVTA: 0.829 ± 0.49; GCHSWSNLGEWCCYIYKMVI: -1.14 ± 0.78.
Substance GCMTMTWMTNYLSFHNDTFT displayed an amyloid nucleation score of 4.26 ± 0.065.
Next, GCNIRTNVGRLCMSYPDSNR: 0.636 ± 0.18; GCSLVKAYCSVL: 0.325 ± 0.6.
With GCSNVCERGS, the amyloid nucleation score result is “inactive”.
In turn, GCSVKFIFNHKSGYYIYLLF registered an amyloid nucleation score of -0.822 ± 0.54.
Next, GCYLVNDASPVSHLVFLPM: “inactive”.
Next, GDFVGMLYNRCGHHMVIILT: -0.731 ± 0.35; GDHVVFNWRAHSSSRIVSSY: 1.17 ± 0.68; GDSFLWTHS: -0.994 ± 0.62.
Next, GDYHSYGVVRSYFCATPSSG: 0.64 ± 0.44.
With GECRCYHQTCGFHCNLGFGY, the amyloid nucleation score was 4.7 ± 0.08.
Next, GEGHWNYLLASFCNHGMCYF: 7.471 ± 0.029; GEINENGKLCGGRAQGTGTY: -0.392 ± 0.63; GELWCDLRILFVGVSLIVL: “inactive”.
Next, GENVVEACLWGQSQASWFIR: -0.009 ± 0.55; GEQMWGYCRLYRGTGRGALG: 1.85 ± 0.16.
Next, GFDLAWSWIPFSRWFALLVN: -0.486 ± 0.56; GFDSDMVPHRSSRAVLC: 1.33 ± 0.46.
Regarding GFGCPA, the amyloid nucleation score is -0.165 ± 1.
Next, GFGVPDWMFDSFSAAQLSQI: -0.343 ± 0.35.
